Measurements from the RNAGym collection of RNA variant scans (doi:10.1021/acssynbio.7b00057).

B1: Pistol ribozyme (parent)
chain: GGGUCGUUGUUCCAUAAUCGCGUGGAUAUGGCACGCAAGUUUCUACCGGGCACCGUAAAUGUCCGACUGGAGCCGUUCGGGCGGCUAUAAACAGACCUCAGGCCCGAAGCGUGGCGGCACCUGCCGCCGGUGGUAAAAAAGAUCGGAAGAGCACACGUCU

Variants of: B1
Experiment: aptazyme ON/OFF ratio, guanine; higher = stronger switching; co-transcriptional cleavage with and without guanine

Variant	aptazyme ON/OFF ratio
GGGUCGAGGAGACAUAAUCGCGUGGAUAUGGCACGCAAGUUUCUACCGGGCACCGUAAAUGUCCGACUGGAGCCGUUCGGGCGGCUAUAAACAGACCUCAGGCCCGAAGCGUGGCGGCACCUGCCGCCGGUGGUAAAAAAGAUCGGAAGAGCACACGUCU [U7A U8G U10A U11G C12A]	1.43
GGGUCGAGGAGGCAUAAUCGCGUGGAUAUGGCACGCAAGUUUCUACCGGGCACCGUAAAUGUCCGACUGGAGCCGUUCGGGCGGCUAUAAACAGACCUCAGGCCCGAAGCGUGGCGGCACCUGCCGCCGGUGGUAAAAAAGAUCGGAAGAGCACACGUCU [U7A U8G U10A U11G C12G]	1.32
GGGUCGAGGACCGAUAAUCGCGUGGAUAUGGCACGCAAGUUUCUACCGGGCACCGUAAAUGUCCGACUGGAGCCGUUCGGGCGGCUAUAAACAGACCUCAGGCCCGAAGCGUGGCGGCACCUGCCGCCGGUGGUAAAAAAGAUCGGAAGAGCACACGUCU [U7A U8G U10A U11C C13G]	1.25
GGGUCGAGGACCUAUAAUCGCGUGGAUAUGGCACGCAAGUUUCUACCGGGCACCGUAAAUGUCCGACUGGAGCCGUUCGGGCGGCUAUAAACAGACCUCAGGCCCGAAGCGUGGCGGCACCUGCCGCCGGUGGUAAAAAAGAUCGGAAGAGCACACGUCU [U7A U8G U10A U11C C13U]	1.05
GGGUCGAGGACCAAUAAUCGCGUGGAUAUGGCACGCAAGUUUCUACCGGGCACCGUAAAUGUCCGACUGGAGCCGUUCGGGCGGCUAUAAACAGACCUCAGGCCCGAAGCGUGGCGGCACCUGCCGCCGGUGGUAAAAAAGAUCGGAAGAGCACACGUCU [U7A U8G U10A U11C C13A]	1.18
GGGUCGAGGACUCAUAAUCGCGUGGAUAUGGCACGCAAGUUUCUACCGGGCACCGUAAAUGUCCGACUGGAGCCGUUCGGGCGGCUAUAAACAGACCUCAGGCCCGAAGCGUGGCGGCACCUGCCGCCGGUGGUAAAAAAGAUCGGAAGAGCACACGUCU [U7A U8G U10A U11C C12U]	1.29
GGGUCGAGGAGCCAUAAUCGCGUGGAUAUGGCACGCAAGUUUCUACCGGGCACCGUAAAUGUCCGACUGGAGCCGUUCGGGCGGCUAUAAACAGACCUCAGGCCCGAAGCGUGGCGGCACCUGCCGCCGGUGGUAAAAAAGAUCGGAAGAGCACACGUCU [U7A U8G U10A U11G]	1.95
GGGUCGAGGACGUAUAAUCGCGUGGAUAUGGCACGCAAGUUUCUACCGGGCACCGUAAAUGUCCGACUGGAGCCGUUCGGGCGGCUAUAAACAGACCUCAGGCCCGAAGCGUGGCGGCACCUGCCGCCGGUGGUAAAAAAGAUCGGAAGAGCACACGUCU [U7A U8G U10A U11C C12G C13U]	1.21
GGGUCGAGGACGAAUAAUCGCGUGGAUAUGGCACGCAAGUUUCUACCGGGCACCGUAAAUGUCCGACUGGAGCCGUUCGGGCGGCUAUAAACAGACCUCAGGCCCGAAGCGUGGCGGCACCUGCCGCCGGUGGUAAAAAAGAUCGGAAGAGCACACGUCU [U7A U8G U10A U11C C12G C13A]	1.56
GGGUCGAGGACGGAUAAUCGCGUGGAUAUGGCACGCAAGUUUCUACCGGGCACCGUAAAUGUCCGACUGGAGCCGUUCGGGCGGCUAUAAACAGACCUCAGGCCCGAAGCGUGGCGGCACCUGCCGCCGGUGGUAAAAAAGAUCGGAAGAGCACACGUCU [U7A U8G U10A U11C C12G C13G]	1.26
GGGUCGAGGAGAAAUAAUCGCGUGGAUAUGGCACGCAAGUUUCUACCGGGCACCGUAAAUGUCCGACUGGAGCCGUUCGGGCGGCUAUAAACAGACCUCAGGCCCGAAGCGUGGCGGCACCUGCCGCCGGUGGUAAAAAAGAUCGGAAGAGCACACGUCU [U7A U8G U10A U11G C12A C13A]	1.28
GGGUCGAGGAGAGAUAAUCGCGUGGAUAUGGCACGCAAGUUUCUACCGGGCACCGUAAAUGUCCGACUGGAGCCGUUCGGGCGGCUAUAAACAGACCUCAGGCCCGAAGCGUGGCGGCACCUGCCGCCGGUGGUAAAAAAGAUCGGAAGAGCACACGUCU [U7A U8G U10A U11G C12A C13G]	1.21
GGGUCGAGGAGAUAUAAUCGCGUGGAUAUGGCACGCAAGUUUCUACCGGGCACCGUAAAUGUCCGACUGGAGCCGUUCGGGCGGCUAUAAACAGACCUCAGGCCCGAAGCGUGGCGGCACCUGCCGCCGGUGGUAAAAAAGAUCGGAAGAGCACACGUCU [U7A U8G U10A U11G C12A C13U]	1.08
GGGUCGAGGAGGGAUAAUCGCGUGGAUAUGGCACGCAAGUUUCUACCGGGCACCGUAAAUGUCCGACUGGAGCCGUUCGGGCGGCUAUAAACAGACCUCAGGCCCGAAGCGUGGCGGCACCUGCCGCCGGUGGUAAAAAAGAUCGGAAGAGCACACGUCU [U7A U8G U10A U11G C12G C13G]	1.43
GGGUCGAGGAGGAAUAAUCGCGUGGAUAUGGCACGCAAGUUUCUACCGGGCACCGUAAAUGUCCGACUGGAGCCGUUCGGGCGGCUAUAAACAGACCUCAGGCCCGAAGCGUGGCGGCACCUGCCGCCGGUGGUAAAAAAGAUCGGAAGAGCACACGUCU [U7A U8G U10A U11G C12G C13A]	1.16
GGGUCGAGGACUAAUAAUCGCGUGGAUAUGGCACGCAAGUUUCUACCGGGCACCGUAAAUGUCCGACUGGAGCCGUUCGGGCGGCUAUAAACAGACCUCAGGCCCGAAGCGUGGCGGCACCUGCCGCCGGUGGUAAAAAAGAUCGGAAGAGCACACGUCU [U7A U8G U10A U11C C12U C13A]	1.14
GGGUCGAGGACUUAUAAUCGCGUGGAUAUGGCACGCAAGUUUCUACCGGGCACCGUAAAUGUCCGACUGGAGCCGUUCGGGCGGCUAUAAACAGACCUCAGGCCCGAAGCGUGGCGGCACCUGCCGCCGGUGGUAAAAAAGAUCGGAAGAGCACACGUCU [U7A U8G U10A U11C C12U C13U]	1.33
GGGUCGAGGACUGAUAAUCGCGUGGAUAUGGCACGCAAGUUUCUACCGGGCACCGUAAAUGUCCGACUGGAGCCGUUCGGGCGGCUAUAAACAGACCUCAGGCCCGAAGCGUGGCGGCACCUGCCGCCGGUGGUAAAAAAGAUCGGAAGAGCACACGUCU [U7A U8G U10A U11C C12U C13G]	1.41
